Assay results reported in US20230287125A1 (LEPU BIOPHARMA, published 2023).
Numbering of substitutions follows the chain as printed. Numbers in names are those of the source.

B1: Hu67F3G7-22, Human IgG1 (N297A)-Fc (antibody, V domains shown)
VH: EVQLVQSGAEVKKPGASVKVSCKASGYTFTDFWVSWVRQAPGQGLEWMGEIYPNSGVSRYNEKFKGRVTMTVDKSISTAYMELSRLRSDDTAVYYCTKYFGYTYWFGYWGQGTLVTVSS
VL: DIQMTQSPSSLSASVGDRVTITCRASKSVSTYMHWYQQKPGKQPKLLIYSASHLESGVPSRFSGSGSGTDFTLTISSLQPEDFATYYCQQSNELPVTFGGGTKVEIK
B2: Hu89C10H8-7, Human IgG1 (N297A)-Fc (antibody, V domains shown)
VH: EVQLVESGGGLVKPGGSLRLSCAASGFTFSNYWMTWIRQAPGKGLEWVASITNTGSSTFYPDSVKGRFTISRDNAKNSLYLQMNSLRAEDTAVYYCTRDTTIAPFDYWGQGTMVTVSS
VL: DIQMTQSPSSLSASVGDRVTITCKASQNLNEYLNWYQQKPGKAPKRLIYKTNTLQAGIPSRFSGSGSGTDYTLTISSLQPEDFATYYCSQYNSGNTFGQGTKLEIK
B3: 47C6A3, Human IgG1 (N297A)-Fc (antibody, V domains shown)
VH: DVQLQESGPGLVKPSQSLSLTCTVTGYSITSDYAWNWIRQFPGNKLEWMGYIIYSGSTSYNPSLKSRISITRDTSKNQFFLQLNSVTTEDTATYYCARSTMIATNWFAYWGQGTLVTVSA
VL: DIVMTQSHKFMSTSVVDRVSITCKASQDVSLAVAWYQQKPGQSPKLLIYWASTRHTGVPDRFTGSGSGTDFALTISSVQAEDLALYYCQQHYITPWTFGGGTKLEIK
B4: Hu67F3G7-18 (antibody, V domains shown)
VH: B1 VH with T28I, M48I
VL: DTVLTQSPSLSASVGDRVTITCRASKSVSTYMHWYQQKPGKQPKLLIYSASHLESGVPSRFSGSGSGTDFTLTISSLQPEDFATYYCQQSNELPVTFGGGTKVEIK
notes: humanized
B5: Hu67F3G7-17 (antibody, V domains shown)
VH: B1 VH
VL: B4 VL
notes: humanized
B6: Hu67F3G7-16 (antibody, V domains shown)
VH: B1 VH with T97A, K98R
VL: B4 VL
notes: humanized
B7: Hu67F3G7-21 (antibody, V domains shown)
VH: B1 VH with T97A, K98R
VL: B1 VL
notes: humanized
B8: Hu67F3G7-14 (antibody, V domains shown)
VH: B1 VH with T28I, M48I, T97A, K98R
VL: B1 VL with I2T, Q3V, M4L
notes: humanized
B9: Hu67F3G7-19 (antibody, V domains shown)
VH: B1 VH with T28I, M48I, T97A, K98R
VL: B4 VL
notes: humanized
B10: Hu67F3G7-15 (antibody, V domains shown)
VH: B1 VH with T28I, Q43K, M48I
VL: B1 VL with I2T, Q3V, M4L
notes: humanized
B11: Hu67F3G7-20 (antibody, V domains shown)
VH: B1 VH with T28I, Q43K, M48I
VL: B4 VL
notes: humanized
B12: Hu89C10H8-16 (antibody, V domains shown)
VH: B2 VH with N77S
VL: B2 VL with P40L, K42E, T69I, Y87F
notes: humanized
B13: Hu89C10H8-13 (antibody, V domains shown)
VH: B2 VH with I37V, T97A
VL: B2 VL with P40L, K42E, T69I, Y87F
notes: humanized
B14: Hu89C10H8-14 (antibody, V domains shown)
VH: B2 VH with I37V
VL: B2 VL with P40L, K42E, T69I, Y87F
notes: humanized
B15: Hu89C10H8-15 (antibody, V domains shown)
VH: B2 VH
VL: B2 VL with P40L, K42E, T69I, Y87F
notes: humanized

Each binder was assayed against PD-L1 on PD-L1 target cells (Homo sapiens (Human), UniProt Q9NZQ7 19-290) (assay: cell-based or functional assay).
Sequence of PD-L1 on PD-L1 target cells (Q9NZQ7 19-290 limits assumed): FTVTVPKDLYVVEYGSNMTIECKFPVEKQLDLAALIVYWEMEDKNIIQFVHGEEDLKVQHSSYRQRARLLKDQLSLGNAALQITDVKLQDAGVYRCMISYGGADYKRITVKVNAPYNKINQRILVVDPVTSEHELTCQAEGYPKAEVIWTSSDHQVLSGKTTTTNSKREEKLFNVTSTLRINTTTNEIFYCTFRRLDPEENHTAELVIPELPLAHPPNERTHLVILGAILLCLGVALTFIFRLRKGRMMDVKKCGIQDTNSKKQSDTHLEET

Binder | EC50, NFAT-RE-mediated luminescence, PD1 effector cells co-cultured with PD-L1 target cells
B1 | 0.103 nM
B2 | 0.214 nM
B3 | 0.15 nM

What follows are binders tested against T1, human PD-L1-his tag protein (human, UniProt Q9NZQ7 19-238) (assay: SPR (Biacore), affinity ranking, PDL1-His).
T1 construct: also called human PD-L1-His protein; recombinant PD-L1 protein; not shown: his tag
T1 sequence (Q9NZQ7 19-238 limits assumed): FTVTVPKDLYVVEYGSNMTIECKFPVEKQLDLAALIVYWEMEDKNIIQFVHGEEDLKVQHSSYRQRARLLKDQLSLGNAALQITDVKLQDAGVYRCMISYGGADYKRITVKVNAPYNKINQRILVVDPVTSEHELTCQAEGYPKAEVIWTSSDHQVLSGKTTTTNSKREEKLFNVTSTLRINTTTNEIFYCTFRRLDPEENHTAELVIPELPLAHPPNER

Binder | Kd | koff | kon
B4 | 0.0331 nM | 9.51e-05 s⁻¹ | 2.88e+06 M⁻¹ s⁻¹
B5 | 0.037 nM | 0.000101 s⁻¹ | 2.74e+06 M⁻¹ s⁻¹
B6 | 0.0754 nM | 0.000111 s⁻¹ | 1.48e+06 M⁻¹ s⁻¹
B7 | 0.156 nM | 8.43e-05 s⁻¹ | 540000 M⁻¹ s⁻¹
B8 | 0.0519 nM | 0.000109 s⁻¹ | 2.09e+06 M⁻¹ s⁻¹
B9 | 0.0545 nM | 0.000107 s⁻¹ | 1.97e+06 M⁻¹ s⁻¹
B10 | 0.0371 nM | 9.69e-05 s⁻¹ | 2.61e+06 M⁻¹ s⁻¹
B11 | 0.0347 nM | 9.36e-05 s⁻¹ | 2.7e+06 M⁻¹ s⁻¹
B12 | 0.098 nM | 6.54e-05 s⁻¹ | 667000 M⁻¹ s⁻¹
B13 | 0.561 nM | 0.000433 s⁻¹ | 764000 M⁻¹ s⁻¹
B14 | 0.137 nM | 9.75e-05 s⁻¹ | 712000 M⁻¹ s⁻¹
B15 | 0.0918 nM | 7.17e-05 s⁻¹ | 781000 M⁻¹ s⁻¹

Each binder was assayed against T2, human PD-L1-Fc protein (human, UniProt Q9NZQ7 19-238) (assay: ELISA, antibody titrated on coated human PD-L1-Fc, OD 450nm; lower left panel).
T2 construct: coating antigen of the ELISAs; also called rhPD-L1-Fc; not shown: Fc
Procedure: (§1) To evaluate antigen binding activity, the humanized antibodies were subjected to ELISA test. Briefly, microtiter plates were coated with human PD-L1-Fc protein at 0.5 μg/ml in PBS, 100 μl/well at 4° C. overnight, then blocked with 200 μl/well of 1% BSA. Three-fold dilutions of humanized antibodies starting from 10 μg/ml were added to each well and incubated for 1 hour at 37° C. The plates were washed with PBS/Tween and then incubated with mouse-anti-human IgG Fab antibody conjugated with Horse Radish Peroxidase (HRP) for 1 hour at 37° C. After washing, the plates were developed with TMB substrate and analyzed by spectrophotometer at OD 450 nm.

T2 sequence (Q9NZQ7 19-238 limits assumed): as above

Binder | EC50
B12 | 0.00757 µg/mL
B13 | 0.00994 µg/mL
B14 | 0.00983 µg/mL
B15 | 0.0088 µg/mL

The binders below were run against T2, human PD-L1-Fc protein (assay: ELISA, antibody titrated on coated human PD-L1-Fc, OD 450nm; lower right panel).
Procedure: as §1

Binder | EC50
B7 | 0.00919 µg/mL
B9 | 0.0132 µg/mL
B11 | 0.0146 µg/mL

What follows are binders tested against T2, human PD-L1-Fc protein (assay: ELISA, antibody titrated on coated human PD-L1-Fc, OD 450nm; lower left panel; the table row is headed 'IC50' on the sheet although the curves rise).
Procedure: as §1

Binder | EC50
B4 | 0.014 µg/mL
B5 | 0.0136 µg/mL
B6 | 0.0114 µg/mL
B8 | 0.0144 µg/mL
B10 | 0.0111 µg/mL
